The results in this text go back to patent publication US20200247894A1 (Regeneron, published 2020).

Broadly, the Kd is the concentration at which binding is half-saturated. One may read the koff as a measure of how fast the partners let go of each other. Read a low koff as a long-lived complex. The term kon denotes the second-order rate constant of association.

The target in assay [1] is T1, human IL-2Rγ expressed on cells (human, UniProt P31785 23-369).
T1 construct: whole, on cells; on cells it stands together with the cytokine-specific receptor subunits; also called IL-2Rgamma; CD132
T1 sequence (looked up): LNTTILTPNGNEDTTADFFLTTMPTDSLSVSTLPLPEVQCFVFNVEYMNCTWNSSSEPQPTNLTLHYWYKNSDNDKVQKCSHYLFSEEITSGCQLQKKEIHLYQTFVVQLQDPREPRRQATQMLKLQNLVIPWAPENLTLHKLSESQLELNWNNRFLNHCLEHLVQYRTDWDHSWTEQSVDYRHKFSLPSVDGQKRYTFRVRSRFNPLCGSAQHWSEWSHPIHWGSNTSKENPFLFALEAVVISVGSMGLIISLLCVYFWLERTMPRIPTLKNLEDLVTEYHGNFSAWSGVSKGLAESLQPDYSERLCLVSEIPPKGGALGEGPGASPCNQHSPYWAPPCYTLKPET
In words: flow cytometry on NK-92 cells, antibody at 10 µg/ml, MFI of sample over MFI of unstained; lower end, tied to H4H13538P by Table 9-2. The protocol:
(§1) For flow cytometry analyses, the cells were pre-incubated with mouse IgG at 100 μg/ml for 15 minutes at room temperature (RT) to block the binding of the antibodies to Fc receptors. […] Cells were washed, fixed using BD CytoFix™ (BD biosciences, #554655) and analyzed on an IQue® (Intellicyt®) Flow Cytometer or Accuri Flow cytometer (BD). […] The results were analyzed using ForeCyt® (IntelliCyt®) software to determine the geometric means of fluorescence (MFI) for viable cells. Binding ratios were calculated by normalizing the MFI of the test sample by the MFI of the unstained sample.
On the technique in general: A flow cytometer gives signals particle by particle.

For assay [2], the target named is T1, human IL-2Rγ expressed on cells. In words: flow cytometry on NK-92 cells, antibody at 10 µg/ml, MFI of sample over MFI of unstained; upper end, tied by Table 9-2 to the row printed H4H13841P.
For assay [3] the target is unchanged. In words: flow cytometry on NK-92 cells, antibody at 10 µg/ml, MFI of sample over MFI of unstained; lower end, tied to H4H12859P by Table 9-1. The protocol: as §1
Assay [4] has the same target. In words: flow cytometry on Jurkat cells, antibody at 10 µg/ml, MFI of sample over MFI of unstained; upper end, tied to H4H12889P by Table 9-1. The protocol: as §1
For assay [5] the target is unchanged. As to the kind of experiment: flow cytometry on NK-92 cells, antibody at 10 µg/ml, MFI of sample over MFI of unstained; upper end, tied to H4H12889P by Table 9-1. The protocol: as §1
The target of assay [6] is T2, Human IL2Rγ extracellular domain expressed with a C-terminal mouse IgG2a Fc tag (human).
T2 construct: whole entry is the Fc-fused construct; also called hIL-2Rg-mFc
T2 chain: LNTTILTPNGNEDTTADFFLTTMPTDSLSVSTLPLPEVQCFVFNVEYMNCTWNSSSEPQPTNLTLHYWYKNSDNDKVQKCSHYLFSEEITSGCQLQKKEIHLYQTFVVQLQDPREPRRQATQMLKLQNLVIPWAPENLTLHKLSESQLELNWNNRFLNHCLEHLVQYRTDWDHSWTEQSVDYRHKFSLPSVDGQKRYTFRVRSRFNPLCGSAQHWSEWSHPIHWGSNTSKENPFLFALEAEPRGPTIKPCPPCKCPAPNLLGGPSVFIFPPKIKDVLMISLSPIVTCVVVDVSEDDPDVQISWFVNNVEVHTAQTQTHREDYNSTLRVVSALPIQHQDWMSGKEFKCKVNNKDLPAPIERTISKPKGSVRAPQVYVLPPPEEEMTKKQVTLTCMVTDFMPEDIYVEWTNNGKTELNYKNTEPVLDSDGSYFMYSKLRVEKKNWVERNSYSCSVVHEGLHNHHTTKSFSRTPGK
As to the kind of experiment: SPR Biacore 4000, anti-hFc-captured mAb, 25 C; computed with kd fixed at 1.00E-05. The protocol: (§2) Equilibrium dissociation constants (KD values) for IL-2Rγ binding to purified anti-IL2Rγ monoclonal antibodies were determined using a Biacore 4000 instrument equipped with a real-time surface plasmon resonance biosensor. All binding studies were performed in 10 mM HEPES, 150 mM NaCl, 3 mM EDTA, and 0.05% v/v Surfactant Tween-20, pH 7.4 (HBS-ET) running buffer at 25° C. and 37° C. The Biacore sensor surface was first derivatized by amine coupling with a monoclonal mouse anti-human Fc antibody (GE, # BR-1008-39) to capture anti-IL2Rγ monoclonal antibodies.
(§3) The dissociation of monoclonal antibody bound IL2Rγ reagents were monitored for 8-10 minutes in HBS-ET running buffer. Kinetic association (kₐ) and dissociation (kd) rate constants were determined by fitting the real-time sensorgrams to a 1:1 binding model using Scrubber 2.0c curve fitting software. Binding dissociation equilibrium constants (KD) and dissociative half-lives (t_{1/2}) were calculated from the kinetic rate constants as: […]
A general note: In SPR one partner is held on a chip, and binding of the other changes the refractive index at the surface.

Assay [7] has as its target T2, Human IL2Rγ extracellular domain …. As to the kind of experiment: SPR Biacore 4000, anti-hFc-captured mAb, 25 C; no dissociation observed, kd manually fixed at 1.00E-05.
The target is the same in assay [8]. In words: SPR Biacore 4000, anti-hFc-captured mAb, 37 C; computed with kd fixed at 1.00E-05. The protocol:
as §2, §3

Assay [9] has as its target T3, Mouse IL2Rγ extracellular domain expressed with a C-terminal myc-myc-hexahistidine tag (mouse).
T3 construct: whole entry is the tagged construct; also called mIL-2Rg-MMH
T3 chain: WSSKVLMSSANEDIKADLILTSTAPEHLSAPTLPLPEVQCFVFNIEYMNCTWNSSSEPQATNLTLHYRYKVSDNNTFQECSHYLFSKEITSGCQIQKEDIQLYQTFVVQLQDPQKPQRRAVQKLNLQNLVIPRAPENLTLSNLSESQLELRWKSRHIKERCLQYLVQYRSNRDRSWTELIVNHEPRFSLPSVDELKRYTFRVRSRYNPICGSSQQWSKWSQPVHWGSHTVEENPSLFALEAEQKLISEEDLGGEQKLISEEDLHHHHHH
In words: SPR Biacore 4000, anti-hFc-captured mAb, 25 C. The essentials:
(§4)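 HBS-ET running buffer (10 mM HEPES, 150 mM NaCl, 3 mM EDTA, 0.05% Tween-20, pH 7.4). mAb capture via anti-human Fc. Dissociation monitored 8-10 min. 1:1 kinetic fit; KD, t1/2 derived from ka/kd.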

The target in assay [10] is T2, Human IL2Rγ extracellular domain …. As to the kind of experiment: SPR Biacore 4000, anti-hFc-captured mAb, 25 C. The essentials:
as §4

Assay [11] has as its target T4, Rat IL2Rγ extracellular domain expressed with a C-terminal myc-myc-hexahistidine tag (rat).
T4 construct: whole entry is the tagged construct; also called rIL-2Rg-MMH; rat IL-2Rg-MMH
T4 chain: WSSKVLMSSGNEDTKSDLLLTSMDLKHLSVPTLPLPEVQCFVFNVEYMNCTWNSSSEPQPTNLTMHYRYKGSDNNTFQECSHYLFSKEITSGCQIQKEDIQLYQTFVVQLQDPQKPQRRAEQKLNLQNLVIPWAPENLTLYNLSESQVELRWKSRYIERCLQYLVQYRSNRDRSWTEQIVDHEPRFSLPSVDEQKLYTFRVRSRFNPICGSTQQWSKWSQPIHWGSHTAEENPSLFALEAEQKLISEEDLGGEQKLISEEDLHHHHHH
In words: SPR Biacore 4000, anti-hFc-captured mAb, 25 C. The essentials:
as §4

Assay [12] concerns the target T2, Human IL2Rγ extracellular domain …. In words: SPR Biacore 4000, anti-hFc-captured mAb, 37 C; no dissociation observed, kd manually fixed at 1.00E-05.
For assay [13], the target named is T3, Mouse IL2Rγ extracellular domain …. In words: SPR Biacore 4000, anti-hFc-captured mAb, 37 C. The gist of the method:
as §4

The target of assay [14] is T5, Macaca fascicularis IL2Rγ extracellular domain expressed with a C-terminal myc-myc-hexahistidine tag (Macaca fascicularis).
T5 construct: whole entry is the tagged construct; also called mfIL-2Rg-MMH
T5 chain: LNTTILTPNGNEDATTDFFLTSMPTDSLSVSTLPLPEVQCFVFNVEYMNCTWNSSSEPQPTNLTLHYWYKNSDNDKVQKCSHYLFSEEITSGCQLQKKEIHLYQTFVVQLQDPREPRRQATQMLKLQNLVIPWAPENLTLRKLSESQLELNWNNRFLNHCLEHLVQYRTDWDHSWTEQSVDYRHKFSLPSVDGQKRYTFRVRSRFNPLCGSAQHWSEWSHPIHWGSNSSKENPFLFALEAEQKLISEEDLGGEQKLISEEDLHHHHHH
In words: SPR Biacore 4000, anti-hFc-captured mAb, 37 C. The gist of the method: as §4

Assay [15] concerns the target T2, Human IL2Rγ extracellular domain …. As to the kind of experiment: SPR Biacore 4000, anti-hFc-captured mAb, 37 C. The gist of the method: as §4
The target in assay [16] is T4, Rat IL2Rγ extracellular domain …. As to the kind of experiment: SPR Biacore 4000, anti-hFc-captured mAb, 37 C. The gist of the method:
as §4

B1: H4H13538P (antibody, human IgG4 S228P, kappa, V domains shown)
VH: EVQLVESGGGLVQPGGSLGLSCAASGFTFSNYAMSWVRQAPGKGLEWVSAVSGGGGGTYYADSVKGRFTISRDNSKNTVLLQMNSLRAEDTAVYYCARGRTGGLDYWGPGTLVTVSS
VL: DVVMTQSPLSLPVIFGQPASISCRSSQSLVDSDGNTYLNWLQQRPGQSPRRLIYEVSNRDSGVPDRFSGSGSGTDFTLTISRVEAEDVGIYYCMQGTRWPPTFGGGTKVEIKR
notes: fully human anti-IL2Rγ antibody, human IgG4
B1: in [1], the binding ratio amounted to 1.

B2: H4H13541P (antibody, human IgG4 S228P, kappa, V domains shown)
VH: EVQLVESGGGVVRPGGSLRLSCAASGFIFDDYDMSWVRQPPGRGLEWVSGIDWFGGTRGYADSMKGRFTISRDNAKNSLYLQMNSLRVEDTAFYYCARGGAIVGAVTPFDYWGQGTLVTVSS
VL: DIQMTQSPSSLSASVGNRVTLSCRASQSINTYLSWYQQRPGKAPKLLIYAASSLQSGVPSRFSGSGAGTDFTLTISSLQPEDFATYYCQQSYSAPLTFGGGTKVEIKR
notes: as for B1
B2: the binding ratio in assay [2] worked out at 37.

B3: H4H12859P (antibody, human IgG4 S228P, kappa, V domains shown)
VH: QVQLVQSGAEVKKPGASVRVSCKASGYTFTDYDIHWVRQAPGHGLEWMGWINPNSGGTNYAQKFQGRVTMTRDTSISTVYMDLSRLRSDDTAVYYCARADYSSSYYYYGMDVWGQGTTVTVSS
VL: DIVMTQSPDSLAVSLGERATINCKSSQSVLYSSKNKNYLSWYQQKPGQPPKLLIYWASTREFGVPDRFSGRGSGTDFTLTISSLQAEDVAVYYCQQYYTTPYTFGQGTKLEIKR
notes: as for B1
As for B3, the binding ratio in assay [3] was found to be 1.

B4: H4H12889P (antibody, human IgG4 S228P, kappa, V domains shown)
VH: EVQLVESGGGLVQPGGSLRLSCAASGFIFSSYEMHWVRQAPGKGLEWISYISSSGTTIYYADSVKGRFTISRDNAKNSLYLHMNSLRAEDTAVYYCTRARITGTFDVFDIWGQGTMVTVSS
VL: DIQMTQSPSSLSASVGDRVTITCRASQSISSYLNWYQQKPGKAPKLLIFAASNLQSGVPSRFSGSRSGTDFTLTISSLQPEDFATYYCQQNYNIPYTFGQGTKLEIKR
notes: fully human anti-IL2Rγ antibody, human IgG4; also called REGN7257
For the molecule B4, the binding ratio in assay [4] is 19; in assay [5] it was 94.

B5: H4H12908P (antibody, human IgG4 S228P, kappa, V domains shown)
VH: EVQLVESGGRLVQPGGSLRLSCEASGFTFSNYGMTWVRQAPGKGLEWVSVISGSDNRKYYAESVKGRFTISRDNSKNTLYLQMNSLRAEDTAVYYCAKLGYSRSSKDFYYGMDVWGQGTTVTVSS
VL: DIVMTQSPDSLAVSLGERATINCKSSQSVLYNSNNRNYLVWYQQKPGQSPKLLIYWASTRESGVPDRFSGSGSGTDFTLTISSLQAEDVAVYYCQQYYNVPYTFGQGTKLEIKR
notes: fully human anti-IL2Rgamma mAb, human IgG4 Fc
Consider B5, for which the Kd in [6] is no more than 0.131 nM; in assay [8], no more than 0.518 nM; in assay [9] it was 108 nM; in [11], 79.3 nM; in [13], 387 nM; in assay [14] it was 39.8 nM. The Kd in assay [16] worked out at 215 nM. For the same molecule, the t1/2 in assay [6] is no less than 1160 min; in assay [8], no less than 1160 min; in assay [9], 3.1 min; in assay [11], 5 min; in assay [13] it was 0.4 min; in assay [14], 8 min. In assay [16], this molecule had a t1/2 of 1.4 min. Also, the koff is no more than 1e-05 s⁻¹ in assay [7]; 0.00367 s⁻¹ in assay [9]; 0.00237 s⁻¹ in [11]; no more than 1e-05 s⁻¹ in [12]; 0.0293 s⁻¹ in assay [13]; 0.00148 s⁻¹ in assay [14]. Moreover, the koff in [16] worked out at 0.00835 s⁻¹. Also, the “100 nM Ag Bound” value in assay [9] was found to be 25 RU; in assay [11], 19 RU; in assay [13], 6 RU; in assay [14], 13 RU; in assay [16], 8 RU. The kon in [9] came out at 34100 M⁻¹ s⁻¹; in assay [10] it was 76200 M⁻¹ s⁻¹; in [11] it was 29800 M⁻¹ s⁻¹; in [13], 75700 M⁻¹ s⁻¹; in assay [14], 37100 M⁻¹ s⁻¹; in [15], 19300 M⁻¹ s⁻¹. The molecule also displayed an on-rate constant (kon) in assay [16] of 38900 M⁻¹ s⁻¹. Also, the “50 nM Ag Bound” value came out at 11 RU in [10] and 8 RU in assay [15].
